Data: patent US20230159649A1, “METHODS AND COMBINATIONS FOR DUAL TARGETING OF TNF FAMILY MEMBERS” (La Jolla Institute for Immunology, priority 2020, published 2023)
Entries after “also recorded” stand apart in the source; their conditions may differ.

What was measured:
[1] = test system: normal human epidermal keratinocytes; experiment: Human epidermal keratinocytes stimulated with rLIGHT or rTL1A; format: cell-based; settings: for NF-κB activation (p-p65/RelA): keratinocytes, 25 ng/ml rTL1A or PBS
Experimental: FIG. 2A-FIG. 2C illustrate LTβR, HVEM, and DR3 are co-expressed or active in lung epithelial cells and fibroblasts, and keratinocytes and dermal fibroblasts. Cultured normal human bronchial epithelial cells and lung fibroblasts, and epidermal keratinocytes and dermal fibroblasts, were stained for expression of (FIG. 2A) LTβR and HVEM, (FIG. 2B) DR3 (isotype controls, gray), or (FIG. 2C) p-p65/RelA NF-κB after culture with 25 ng/ml rTL1A or PBS. Data representative of 2-4 experiments each.
Experimental Design: 1.1. LIGHT and TL1A co-operate to promote hyperplasia and inflammatory features in human keratinocytes: Firstly, the inventors test how signaling from LIGHT and TL1A directly regulate keratinocytes in vitro. Studies are performed with titrated doses of rLIGHT or rTL1A (0.1-100 ng/ml) vs. PBS, added to normal human epidermal keratinocytes from a minimum of 4 donors (obtained from Lonza) with kinetic analyses, as described previously (7, 8). LIGHT and TL1A have maximal activity in the range 20-100 ng/ml, similar to IL-13 or IL-17. […] The inventors control for specificity with siRNA knockdown of DR3, and then determine synergistic or additive activities, cross-titrating rLIGHT together with rTL1A and measure the extent of cell division and growth. The inventors also test if co-operation is at the level of the receptors (e.g. TL1A enhances expression of the LIGHT receptors).

[2] = test system: normal human bronchial epithelial cells (HBE); experiment: Human bronchial epithelial cells (HBE) stimulated with rLIGHT or rTL1A; format: cell-based; settings: for periostin and TSLP expression (IF staining): 48 hrs
Text: HBE were stimulated with rLIGHT without (black bars) or with (gray bars) budesonide. Data are mean fold increase in mRNA over unstimulated cells after 3 days, measured by RT-PCR. Steroid sensitivity was arbitrarily set at >75% inhibition of the LIGHT-induced response, indicated to the left of the thick dotted lines.
HBE were stimulated with rLIGHT (left) or rTL1A (right) for 48 hrs and expression of periostin and TSLP examined by IF staining.

[3] = test system: lung fibroblasts; experiment: Lung fibroblasts stimulated with rTL1A or rLIGHT; format: cell-based
[4] = test system: airways of naïve mice; experiment: Injection of recombinant LIGHT / TL1A into the airways of naïve mice: airway remodeling; format: in vivo, mouse; settings: 10 μg intratracheally on two consecutive days, day 3
[5] = test system: airways of naïve mice; experiment: as above; format: in vivo, mouse; settings: for airway remodeling (accumulation of collagen, trichrome): 10 μg intratracheally on two consecutive days, day 3, rLIGHT in DR3−/− mice, rTL1A in LIGHT−/− mice; for remodeling in mice lacking T cells and ILCs: RAG and RAGγc−/− mice; for fibrosis and remodeling after injection of the recombinant protein alone (collagen, αSMA / smooth muscle, airway hyperresponsiveness): naïve mice, into the airways (or skin)
Experimental: Naïve mice were injected with PBS or 10 μg rLIGHT or rTL1A intratracheally on two consecutive days. On day 3, accumulation of collagen was analyzed in the airways with trichrome staining. (FIG. 3A) rLIGHT was injected into DR3−/− mice, or rTL1A into LIGHT−/− mice. (FIG. 3B) rLIGHT was combined with rTL1A (5 μg each), and the extent of collagen deposition scored as well as the extent of inflammation scored. (FIG. 3C) rLIGHT and rTL1A were injected into RAG−/− mice.
The inventors furthered these observations by testing whether LIGHT and TL1A could induce fibrosis and remodeling independently of other inflammatory activity, and of each other, by injecting the recombinant proteins into naïve mice. […] Moreover, the effects of LIGHT and TL1A were not reliant on the other cytokine shown by injection of the proteins into the respective knockout animals.

[6] = test system: human airway fibroblasts (HAF); experiment: Human airway fibroblasts (HAF) stimulated with rLIGHT or rTL1A with or without TGF-β; format: cell-based
Text: FIG. 9A-FIG. 9D illustrate LIGHT and TL1A induce inflammatory and remodeling activity in human airway fibroblasts (HAF). HAF were stimulated with rLIGHT or rTL1A with or without TGF-β. (FIG. 9A) Proliferation (left, thymidine incorporation) or αSMA mRNA (right) induced by LIGHT, TGF-β or both. (FIG. 9B) mRNA for select genes induced by LIGHT. (FIG. 9C) Collagen 13 and periostin protein (IF stain; DAPI is used for […]) and mRNA induced by TL1A. (FIG. 9D) Proliferation (left, thymidine incorporation) and αSMA mRNA (right) induced by TL1A, TGF-β, or their combination. Data individual cultures or means of triplicates. mRNA either fold increase over unstimulated cells or relative to GAPDH.
The inventors compare rTL1A to rLIGHT, titrating each molecule (5-100 ng/ml, their optimal dose range, see (60, 69)). The inventors perform kinetic analyses over 3 days (e.g. 4, 24, 48, 72 hr) and compare data from 4-6 individual cell populations. The inventors initially gain data with normal HAF. […] The inventors additionally have shown that rTL1A can promote activities in HAF that might overlap with, but also be distinct from, LIGHT (FIGS. 9C and 9D).

[7] = test system: dermal fibroblasts; experiment: Dermal fibroblasts stimulated with rLIGHT; format: cell-based, human; settings: preliminary studies
Text: LIGHT and TL1A synergistic in driving proliferation and inflammatory activity in dermal fibroblasts: The inventors determine inflammatory events that are triggered by LIGHT and TL1A in normal human dermal fibroblasts, using cells from a minimum of 4 donors, with kinetic analyses. The inventors find that both LIGHT and TL1A induce fibroblast proliferation, and may have differential abilities to induce myofibroblast differentiation. […] The inventors also test a range of inflammatory factors relevant to AD or psoriasis that have receptors on fibroblasts (e.g. LIGHT, IL-13, TGF-β, FGF, TNF, IL-17) to determine if they can promote DR3.

[8] = test system: skin of naïve mice; experiment: Subcutaneous / intradermal injection of recombinant LIGHT into mice: skin fibrosis and inflammation; format: in vivo, mouse
Text: Masson trichrome (collagen), alpha Smooth muscle actin (αSMA) and TSLP immunofluorescent staining of skin sections. The data is representative of 6 to 10 mice per group.
Diseases such as atopic dermatitis (AD) and psoriasis present with extensive tissue remodeling, features shared with diseases of the lungs, such as severe asthma. The inventors have shown that a genetic deficiency in the TNF superfamily molecule LIGHT (TNFSF14, CD258), and blocking LIGHT binding to its receptors, reduced remodeling in the lungs in mouse models of severe asthma and systemic sclerosis (1, 2). […] LIGHT interacts with the TNF superfamily receptors HVEM (herpesvirus entry mediator, TNFRSF14) and LTβR (lymphotoxin beta receptor, TNFRSF3), and TL1A with DR3 (TNFRSF25) (4-6). The studies disclosed herein investigate the combination use of LIGHT and TL1A to control skin tissue remodeling relevant to AD and psoriasis, directly driving deregulated activity in keratinocytes and dermal fibroblasts. In support, the inventors have reported that LIGHT-deficient mice were protected from developing skin inflammation in models of scleroderma (7) and allergen-induced AD (8). […] The inventors have observed that the absence of TL1A/DR3 interactions also markedly limits disease in the same models of AD and psoriasis, and that keratinocytes and fibroblasts co-express DR3 together with the receptors for LIGHT. The inventors determine that LIGHT and TL1A are effectors of skin pathology through driving epidermal hyperplasia and remodeling molecules such as collagen, periostin, and alpha smooth muscle actin in keratinocytes and/or fibroblasts. Through production of other factors such as TSLP, IL-33, and chemokines in these structural cells, LIGHT and TL1A maintain disease through orchestrating immune inflammatory cells in the skin.

rTL1A: recombinant TL1A (TNFSF15) protein [reference compound]
NF-κB activation (p-p65/RelA) [1]: enhanced NF-κB activation
NF-κB activation (p-p65/RelA) ([1]; listed as TL1A): induce NF-κB activation
periostin and TSLP expression (IF staining) [2]: promotes fibrotic activity
periostin and TSLP expression (IF staining) ([2]; listed as TL1A): upregulated
periostin and collagen in lung fibroblasts ([3]; protein alone): induced periostin and collagen
proliferation of lung fibroblasts ([3]; protein alone): induced proliferation
αSMA in lung fibroblasts ([3]; protein alone): not αSMA
proliferation and αSMA together with TGF ([3]; with TGF-α as printed): synergized with TGF-α
αSMA expression in airways [4]: upregulated
airway remodeling (accumulation of collagen, trichrome) [5]: promote airway remodeling
remodeling in mice lacking T cells and ILCs [5]: induced remodeling
fibrosis and remodeling after injection of the recombinant protein alone (collagen, αSMA / smooth muscle, airway hyperresponsiveness) ([5]; listed as TL1A): substantial collagen deposition and αSMA accumulation; also recorded: induced a fibroproliferative syndrome
fibrosis and remodeling after injection of the recombinant protein alone (collagen, αSMA / smooth muscle, airway hyperresponsiveness) ([5]; listed as recombinant TL1A): rapidly promotes smooth muscle alterations, collagen deposition, and airway hyperresponsiveness
collagen 13 and periostin protein and mRNA [6]: promoting collagen 13 and periostin
proliferation of HAF (thymidine incorporation) ([6]; protein alone): induced proliferation
proliferation of HAF in combination with TGF-β ([6]; with TGF-β): augmented by TGF-β
αSMA mRNA in combination with TGF-β ([6]; with TGF-β): enhanced TGF-β driven αSMA

B1: rLIGHT: recombinant LIGHT (TNFSF14) protein (protein)
chain: DGPAGSWEQLIQERRSHEVNPAAHLTGANSSLTGSGGPLLWETQLGLAFLRGLSYHDGALVVTKAGYYYIYSKVQLGGVGCPLGLASTITHGLYKRTPRYPEELELLVSQQSPCGRATSSSRVWWDSSFLGGVVHLEAGEKVVVRVLDERLVRLRDGTRSYFGAFMV
TSLP, periostin and αSMA expression [7]: upregulated TSLP, periostin, and αSMA
induction of TSLP and periostin from keratinocytes [1]: induce molecules from keratinocytes
proliferation/hyperplasia of human keratinocytes ([1]; via both HVEM and LTβR): induce proliferation/hyperplasia
periostin and TSLP expression (IF staining) [2]: upregulated
expression of adhesion molecules, proteinases, cytokines and chemokines (mRNA, RT-PCR), steroid sensitivity ([2]; 3 days, without or with budesonide): induce expression; also recorded: promotes steroid-resistant responses
chemokines (CCL5, CCL20 CXCL5 CXCL11) in lung fibroblasts [3]: upregulated some chemokines
αSMA expression in airways [4]: upregulated
skin fibrosis and remodeling (trichrome, αSMA, TSLP staining) ([8]; WT mice, intradermal injection, 20 μg/mouse vs PBS): induces scleroderma; also recorded: induces skin fibrosis and remodeling
cytokines and chemokines induced in vivo ([8]; injected s.c. into mice): induced the cytokines IL-33 and IL-25; also recorded: inducing several chemokines
skin disease features after subcutaneous injection ([8]; naïve mice, subcutaneous injection): induced features of AD, scleroderma, and psoriasis
airway remodeling (accumulation of collagen, trichrome) [5]: promote airway remodeling
remodeling in mice lacking T cells and ILCs [5]: induced remodeling
fibrosis and remodeling after injection of the recombinant protein alone (collagen, αSMA / smooth muscle, airway hyperresponsiveness) [5]: reproduce this fibrotic activity
fibrosis and remodeling after injection of the recombinant protein alone (collagen, αSMA / smooth muscle, airway hyperresponsiveness) ([5]; listed as LIGHT): rapidly promotes smooth muscle alterations, collagen deposition, and airway hyperresponsiveness; also recorded: substantial collagen deposition and αSMA accumulation; also recorded: increases the accumulation of collagen and alpha-SMA; also recorded: induced a fibroproliferative syndrome
collagen 13 and periostin protein and mRNA [6]: the former shared with LIGHT but not the latter
myofibroblast differentiation (upregulation of αSMA mRNA) ([6]; protein alone): cannot drive myofibroblast differentiation
proliferation of HAF (thymidine incorporation) ([6]; protein alone): promote proliferation
adhesion molecules, chemokines, cytokines and metalloproteases mRNA ([6]; through the LTβR, siRNA knockdown): induced
